Reference: patent publication US20250206812A1 (AARHUS UNIVERSITET, published 2025)

B1: nanobody AM2-O2 (VHH, not shown: small tags and cut ends)
VHH: EVQLQESGGGLVQAGGSLRLSCAASGDTICISAMGWYRQAPGKERELVAVITSADSTNYADSVKGRFTISRAGAKNTLYLQMNSLKPEDTAVYYCNAHTPKYSDFEVTCYEYDYWGQGTLVSVS
B2: nanobody AM2-C2 (VHH, not shown: small tags and cut ends)
VHH: EVQLQESGGGLVQPGGSLRLSCAASGTTINIGAARWYRQAPGKQREVVAGISFGGATNYIDSVKGRFTISRGDALNTWYLQMNNLKPEDTAVYYCNARGEWGQGTQVAVS
B3: AM1-1 IgG1 (monospecific nanobody-based human IgG1) (Fc fusion)
chain: QVQLVETGGGLVQAGGSLRLSCATSGTIFSRATMAWYRQTPGKQREWVTTITTSGNTNYADSVKGRFTISRDNAESTLYLQMNSLKPEDTAVYYCNAQFLSSRTNYWGKGTQVTVS
B4: mix of the two monospecific nanobody-based human IgG1 (AM1-1 IgG1 and AM1-4 IgG1) (other)
chain 1: B3 chain
chain 2: QVQLVESGGGLVQAGGSLRLSCAASGRTFSRYAMGWFRQAPGKEREFVSAISGSGGFTDYADSVKGRFTISRDNAKSTVYLRMSSLKPEDTAVYYCAAEGSRGSSTRLDARGTYDYWGQGTQVTVS
B5: nanobody AM1-21 (VHH, not shown: small tags and cut ends)
VHH: QVQLVESGGGLVQAGGSLRLSCAASGFTLDYYAIGWFRQAPGKEREGVSCITSYDDSTYYTDSVKGRFTISRDNAKNTVYLQMNSLKPEDTAVYYCAAVGTWYLVNWWAPSEYDYWGQGTQVTVS
notes: also called A7
B6: AM1-21 IgG1 (nanobody-based human IgG1) (Fc fusion)
chain: B5 VHH
B7: nanobody AM1-22 (VHH, not shown: small tags and cut ends)
VHH: QVQLVESGGGLVQAGGSLRLSCAASGSIFNWAWYRQFPGKQREWVATITSGGNTNLADSVKGRFTISLDNAKNTMYLQMNSLKPEDTAVYYCNSARFRNRDAIWGQGTQVTVS
notes: also called B4
B8: AM1-22 IgG1 (nanobody-based human IgG1) (Fc fusion)
chain: B7 VHH
B9: AM1-4 IgG1 (monospecific nanobody-based human IgG1) (Fc fusion)
chain: B4 chain 2

Assays:
[1] = biological target: recombinant Api m 2 (rApi m 2), venom hyaluronidase (honeybee, UniProt Q08169 34-382); assay: ELISA, immobilized rApi m 2, purified nanobody
recombinant Api m 2 (rApi m 2), venom hyaluronidase, sequence (Q08169 34-382): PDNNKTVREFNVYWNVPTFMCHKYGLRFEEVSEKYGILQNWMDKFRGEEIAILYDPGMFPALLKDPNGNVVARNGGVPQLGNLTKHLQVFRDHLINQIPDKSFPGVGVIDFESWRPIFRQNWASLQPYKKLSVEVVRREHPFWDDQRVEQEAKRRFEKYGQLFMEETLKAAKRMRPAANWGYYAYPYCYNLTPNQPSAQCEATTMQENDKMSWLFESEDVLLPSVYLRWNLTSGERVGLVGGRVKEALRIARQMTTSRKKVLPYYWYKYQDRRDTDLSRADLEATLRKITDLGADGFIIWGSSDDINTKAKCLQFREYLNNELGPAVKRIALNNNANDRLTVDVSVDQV
Protocol: (A) Binding to immobilized Api m 1 was detected using anti-V5 antibody. […] (B) Binding to immobilized rApi m 2 was detected using mouse anti-penta-His and AP-conjugated rabbit anti-mouse IgG antibody.
The immunoreactivity of expressed nanobodies was assessed by ELISA. Briefly, micro well plates were coated with 10 μg/ml nApi m 1 or rApi m 2 diluted in PBS at 4° C. o.n. After blocking for 1 h with PBS containing 4% skimmed milk powder, purified nanobodies were incubated in the wells for 2-3 h at rt. shaking. After washing, nanobodies were detected with rabbit anti-V5 antibody (antibodies-online) and AP-conjugated goat anti-rabbit IgG antibody (Sigma) or with mouse anti-penta-His and AP-conjugated rabbit anti-mouse IgG antibody (Sigma).

[2] = biological target: T1, native Api m 1 (nApi m 1), phospholipase A2 from honeybee venom (Apis mellifera, UniProt P00630 34-167)
T1 sequence (P00630 34-167): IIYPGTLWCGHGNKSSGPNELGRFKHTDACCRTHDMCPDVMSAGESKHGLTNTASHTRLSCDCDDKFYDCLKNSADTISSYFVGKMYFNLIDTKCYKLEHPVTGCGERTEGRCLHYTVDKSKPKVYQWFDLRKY

[3] = biological target: T1, native Api m 1 (nApi m 1), …; assay: cell-based or functional assay
[4] = biological target: T1, native Api m 1 (nApi m 1), …; assay: monoclonal phage ELISA (phage-displayed nanobody) on immobilized Api m 1 or AM1-4 IgG/Api m 1 complexes; positive clones
Protocol: Enrichment of the nanobody phage library was assessed in ELISA by measuring the immunoreactivity of polyclonal phages (A). Binding of phages to immobilized Api m 1 or AM1-4 IgG/Api m 1 complexes was detected using a biotinylated anti-M13 antibody. Data are mean±s.d. of duplicates. Immunoreactivity of monoclonal phages was analyzed in ELISA as above (B). Data are single measurements.
After two rounds of selection the polyclonal phages were assessed for binding to Api m 1 by ELISA. Briefly, micro well plates were coated with 2 μg/ml Api m 1 or 10 μg/ml AM1-4IgG diluted in PBS at 4° C. o.n. After blocking for 30 min with TBS containing 4% skimmed milk powder, the wells were incubated with 2 μg/ml Api m 1 for 1 h at room temperature. After formation of AM1-4 IgG/Api m 1 complexes, polyclonal phages (1×10¹² phages/ml) were incubated in the wells for 2 h at room temperature. After washing, bound phages were detected with biotinylated anti-M13 antibody (Invitrogen) and AP-conjugated ExtrAvidin. For assessment of monoclonal phages, E. coli ER2738 infected with polyclonal phages were plated and individual colonies were picked and expanded for monoclonal phage propagation. Monoclonal phages were assessed by ELISA as described above.

[5] = biological target: T1, native Api m 1 (nApi m 1), …; assay: BLI, compared with AM1-1 IgG1

Binder | Kd [2] | inhibition of basophil activation (CD63 positive), Patient 1 [3] | inhibition of basophil activation (CD63 positive), Patient 2 [3] | also measured
B1 | – | – | – | binding result [1]: binds
B2 | – | – | – | binding result [1]: binds
B3 | 1.94 nM | 16% | 7% | –
B4 | – | 69% | 38% | –
B5 | – | – | – | binding result [4]: binds
B6 | 0.0153 nM | – | – | fold higher affinity than AM1-1 IgG1 [5]: ~100 fold
B7 | – | – | – | binding result [4]: binds
B8 | < 0.001 nM | – | – | fold higher affinity than AM1-1 IgG1 [5]: ~100 fold
B9 | 0.3 nM | 44% | 23% | –
